Experiment: soluble on expression in E. coli; label from the status in PepcDB or PDB records

Sequence | soluble on expression in E. coli
SAENERMYISYNNIHKLCQGVAKHILARNERPDIIIAITGGGMIPARIIRSFLKTKGQKNIPIQAIGLSLYEDLGLDNSVETIGKEVIRTQWLDFGALNQHFDSLIGKKVLIVDEVDDTRTTLHYAVSELEKEIAEQQKVLNRMSEETVISIFVLHNKDKPKRAGLPDSMMNSGRYIAAQTVPDKWLCYPWDAEDIEEHTMLAKAQGHD | soluble
MALNADDEDFEWEPPSEAEMKVIQARRERQDKISKLMGDYLLKGYKMLGECCELCGTILLQDKQKKNYCVACQELDSDVDKDNPALNAQAALSQVRERQLATQPVPESNGASSSEPPLSITGQPRPEHCEGAASGLRGPPPTVQPTPLSIPTPASNFLPPSNPPVQTTPPVGSSGSSLHHHPALSSAEEAVLHKLRWATQELQHAASVEASIQLCNLIRGCAESLRSLKELQLS | not soluble
MKMTVVGFWGGFPEAGEATSGYLFEHDGFRLLVDCGSGVLAQLQKYITPSDIDAVVLSHYHHDHVADIGVLQYARLITSATKGQLPELPIYGHTFDENGFHSLTHEPHTKGIPYNPEETLQIGPFSISFLKTVHPVTCFAMRITAGNDIVVYSADSSYIPEFIPFTKDADLFICECNMYAHQEAAKAGHMNSTEVASIAKDANVKELLLTHLPHTGNPADLVTEAKQIFSGHITLAHSGYVWNS | soluble
SSTAGDGERGTVGQEDSAAARPFRFSPEPTLEDIRRLHAEFAAERDWEQFHQPRNLLLALVGEVGELAELFQWKSDTEPGPQAWPPKERAALQEELSDVLIYLVALAARCHVDLPQAVISKMDTNRQRYPVHLSRGSACKYTDLPRGTISENQAVGAGDPASELRDQAST | soluble
AHHHHHHGSKLEIRDLSVGYDKPVLERITMTIEKGNVVNFHGPNGIGKTTLLKTISTYLKPLKGEIIYNGVPITKVKGKIFFLPEEIIVPRKISVEDYLKAVASLYGVKVNKNEIMDALESVEVLDLKKKLGELSQGTIRRVQLASTLLVNAEIYVLDDPVVAIDEDSKHKVLKSILEILKEKGIVIISSREELSYCDVNENLHKYSTKIDKKD | soluble
MGSDKIHHHHHHMTERTLRGQVAVVGVGESEYYRAGHAPDPEFRLLLKAVLAACRDADIDPADIDGFASFADDRNDAVRIATALGVKRLRSTTMQWGGGGGGCAAAVANGAAAIMSGMAQCVLVYRGLAQGQFGRFGQAAPRASISGEMAYQMPYGVLAPPQKFAMKVQRFMHEHGVRREALRAIALASYQHAQANPRAVMHGKPLTAEAYDASRWIVEPFRLFDCCMENDGAGALLLVAAERAKDFPHRPVYLLGAASGGDWRAAASPHNAPHYASANYSGVSGDLYRMARVSPADVGVVQSYENFTGGVAMALSEHGFFHPDEANDFLTPENLVAPSGKLPLNTSGGNLGECYVHGFELVIEAARQVRGESTSQAARHDVALVIGGPMVTPASSLLFGSAATL | not soluble
MASSKNYLEFVLEQLSGLDDVTYRSMMGEYILYFRGKIIGGIYDDRFLVKPVQAVLDKIDQSSFEFPYKGAKEMI | not soluble
MGSDKIHHHHHHMETLRILHTNDLHSHFEHFPKIGRYLKKAQADNSVDEVYTFDAGDFMDRSHPLTDATEGQANIKLMNGFKYTAVTIGNNEGISNPHWVLEHLFDHADFPTVLANLREEDESMPNWAIGHKILTTKKNTRIALIGLTAAYPMTYGPNHWHVKMLGSTMDKELAKINGQYDMLILITHIGLKMDRWLAKNYPQIDLIVGGHSHDLIVQGEKVDHTWITQTGKWGNYVGDIHVELEDHHVTKIVPNTVATASMPEEPEDESVIKGYYEKGKQLLSERKVAKLPEKFADDKIAAVQVSLDAIADFAKTDLAILSSGLFLTPFKSGILTQFDLQNALPHPMHVVRSTLKGSDLWRLVMEIEKNRHYLDHFPLQGMSFRGKIFGQMYYKGIKVDMRKRIVYVNGQEINPDSEYRIACLDHYVLVPFFPTLAIVGENEFLFPQFLREVVGDYLAKKYPLPARSEIND | not soluble
ASSGIVKMVSPTSKIEPCIVSVTYGSMTLNGLWLDDKVYCPRHVICSSSNMNEPDYSALLCRVTLGDFTIMSGRMSLTVVSYQMQGCQLVLTVSLQNPYTPKYTFGNVKPGETFTVLAAYNGRPQGAFHVTMRSSYTIKGSFLCGSCGSVGYVLTGDSVKFVYMHQLELSTGCHTGTDFTGNFYGPYRDAQVVQLPVKDYVQTVNVIAWLYAAILNNCAWFVQNDVCSTEDFNVWAMANGFSQVKADLVLDALASMTGVSIETLLAAIKRLYMGFQGRQILGSCTFEDELAPSDVYQQLAGV | soluble
MGSDKIHHHHHHMTNEQDPKQNHLLSVLPEAEWARISPHLVRIDMPLGQVIYESGDRLHHVYFPTTSIVSLLYVMEDGSSAEIAIVGNEGLIGIALFMGGETTPNRAIVQSAGEAYRLDARILKQEFHRAGPVQRLLLRYTQALITQMAQTAVCNRHHSIDQQLCRWLLLSLDRLPSNELRMTQELIANMLGVRRSGVTEAALKLQDAGLIRYSHGHIEVLDRPGLEKRVCECYNVVKQEFDRLLPDLKAL | not soluble
MSASLRQSELTIRACILYEALGKNPIQLSYYNFCTRVGNGVMGFSDFEFWYDRFSNGNHDLDYDRSVNQVPKSLPEMPKSEKTEISEIGTQVDIVELLNLMKVSQSVAQKRKVVLDSLVVQFYEGESCSRLIFNDRYIIKYEKKDQGCTVSYSDNRASSDSRKKEINVTDEDYVELCIKDLKLLMENRMVHLKTFRFAIIAVATKEFREKCMKRVEEALKTAKSLTSRTVETTGGYLLELAQLMAIFPAKNVEEIRFTGDGTIGSEQLVSLEQWKNARKFDGMRDLNVPIEHFLHFETFIVYLSVFTEDDAVKLRDMIDRSAHFCYARLHFKSMNIRTLMGVFDVYNTEHNIVYQTPDQRYFNVRFYSNELQITKSAILNFQIE | not soluble
GVDRDYLQSEYGVLKAGQCYKVVRSFRDYRNINYERGDVMRFLGSNFVPYESGLSLFFDKNGSERQIMLCVRPEFQMEIAHHLDSYFCKLDDN | soluble
MIEVISATALATVQDLGRHGSLGYGVGTSGAMDTLSLRLGNLLLGNAEDAAGIEIPLFPFEVRFVEDCTFAITGAACSAKLDGGRLPGNWAAQARKGQVLKLSYPTTGSRAYLCLAGGVDVPPVLGSRSTQLRGAFGGWQGRALQQGDVIPAGAANQQRAGDFGLESAVAGLPLMLDGLPAIRVLPAAEFDCFSVEAQDTFFAGEWKITTQSNRYGYRMEGTPLLAREALEIRSHGIVPGVIQVPHGGQPIVQMRDAQPSGGYPKFATVIEADLWRLGQAPIGSKVRFVQCSYEQAIEALDTNHAFIEDARRLLALRGLQGHRLEHHHHHH | not soluble
MADDLGDEWWTQGDNSDVPEVEEETEHAEEKQPIKSTPKKRKVEKQIPDATKKKKATVKKECFITQERSEEKPDNESNKNKKRRKKKKTITDVLTSSKPVPGSPVDLVSLLKTYHSQTRSVIEQEELTLQDSCFLSCNDLTHSLSSYLKEVCPKWAKMQKQHTQTSSVVLLIVCGSALRTIDLIKQLVTFKGQAKVLKLFAKHIKVEEQIKSLSKGVTHIAVGTPGRICALLEKEGLTVQGLRYLVLDWNYRDQKQRRMVDVPEVKGDLLKMMDQGLIQSCREGTVKIGLF | not soluble
MRMLRRLRRATVAAAVWLATVCLVASCANADPLGSATGSVKSIVVGSGDFPESQVIAEIYAQVLQANGFDVGRRLGIGSRETYILALKDHSIDLVPEYIGNLLLYFQPDATVTMLDAVELELYKRLPGDLSILTPSPASDTDTVTVTAATAARWNLKTIADLAPHSADVKFAAPSAFQTRPSGLPGLRHKYSLDIAPGNFVTINDGGGAVTVRALVEGTATAANLFSTSAAIPQNHLVVLEDPEHNFLAGNIVPLVNSRKKSDHLKDVLDAVSAKLTTAGLAELNAAVSGNSGVDPDQAARKWVRDNGFDHPVRQ | soluble
MTFEDLHEYLDYLAKKNDLVTITEEVDPNLDLTYILSEEERMGRGRTILFKNVKGSQVPAVGNLFSTNEKLKAVLGDDPYSIGVKIADIVKPPRDSESFIGKGLEMMRELSGLRPKVSNSIPSGYSELEKVDLYRYPICKTWPDDGGPFITLPLVITKDPSTGIRNMGMYRMQVYDSETTGMHWHIHKGGSENFLKEKEKGKAMDVAVVIGSDPLTIFSAVAPLPNGIDEFMFRGLISRKRSELVKGKTVDLEYPRNFEIVLEGYIDPSETRVEGPFGDHTGYYSLEEEFPVFHVKNIIERNDRIYPTTIVGKLWHEDVVLGKAVERMFLPLIQMVLPEVVDINTMEEAVFHNMVIVSIKKRYPGHAKKVMFALWGLGQLMFSKIIVVVDDDINIHNRKELIWAMTTRIDPDRDVIIIPGTVTDSLDHAAPLFNYGSKMGIDATKKDKSEGYTRRWPDVLEMPKDVVDKVRQIMKNNRLIQLEHHHHHH | not soluble
MGSDKIHHHHHHMYIESFKQHFSAIDDHRQSAKVTYPLFDVLFGSLCAVIASSNGWFEIREYILGHHSWFKKQKMFIDGIPADDTIARIVSMIEPDSFNACFLAWMKSVHQLTNGEVIAIDGKTLRGSYNRDDRSSTIHMISAYASANKLVLGQLKAEQKSNEITAIPTLLKMLDLRGALVTIDAMGCQTAIATTIIDKGGDYLLAVKNNQGNLAKAINKAFSSHRSAGLSDDHVNIEKSHGRIENRACFVLSSAELDGDFTHWEALKSIVMVESFRAVKGKTASLEYRYYISSKVLSAEQALSATREHWGIESMHWVLDVSMNEDECQIYKNNGAENLAYLRHMSLNMLQKEPTKLSIVGKRKRCLMNPAFLEKVLIAGLCAPTK | not soluble
MSLFIRDNHLHTHHSYDSDANFTDYLTHFDGEIVTTEHYDLSNPYTKQDDVPDYESYSHEVEKLNLKYGNRIKRGIEIGYYQPRESDILDFLDGKDYDLKLLSVHHNGVNDYLDDEVAEMDKANIIQEYLDKLEYAVGRVDADVLAHFDYGFRLFDVTVDELKAYENQLKRIFKKMIANDLAFELNSKSMYLYHHEGLYRYVLALVKDLGCRKYSIGSDGHKLEHFRLNFDKIQELLREFEITEDMEGHHHHHH | not soluble
MGSDKIHHHHHHPEIIVPKPHQLKWHEAEMGAVFHYDLHVFDGIRYGQGNNRISPIEDYNIFNPTQLDTDQWIQAAKAAGCKFAVLTATHETGFGLWQSDVNPYCLKAVKWRDGKGDIVRDFVNSCRKYGIQPGIYVGIRWNSLLGIHNFKVAGDGEFAANRQAWYKRFCEKMVEELCTRYGDLYMIWFDGGADDPRGDGPDVEPIVNKYQPDCLFYHNIDRADFRWGGSETGTVGYPCWSTFPAPCSHHKRIESQKDQIALLKQGDPEGKYWVPAMADSPLRGANGRHEWFWEPDDENNIYPLTTLMDMYEKSVGRNATLIIGLTPDPDGLLPAGDEQRLKEWGEEINRRFGTPLAETQGRKQRLTLNLNEKQPVNYCIIQEDIAKGERIRQYKIEAKVNGKWQTVCSGESVGHKRIAHFEPVETTALRLTVTQSVAVPEIRHFSAYNVTLK | not soluble
MAHHHHHHMKNALFVNENMTILKIFYKDKLYMIKNKICGYQHDINENLVNNPHLLFLGRQEAWILILKCKEEAILQNCITATRYEEIRESEIERHDCVLGSLRK | not soluble
MGSDKIHHHHHHAACSNDEKITESTPKTVALTVKLPEFGGASSRAIDPETTTGNKVTINGPVKIIARVSQGGAITNTISENITAGSMSTITVSGAAQWIEVEANGDNSTETDNVNTRQGSATSSKVRLFGGATINPGSGGNATCTPTISPDMARVEVKGSLGTSWTHLTDLKVKGIYINNIKLTRGVSSLTRIASAAWNTEYAPSGKFEKMFNDNLGGVGAGAGVAQITPGQADGYNFFPQKDNTLPLPTTKEDVMKNSIHIIMEVEFTRADGVPVVGPQWLNVVALKDNTATNYITDFEAGNVYSIDLADIKDIMDVPVPPVTPNPDPETVSVDLTVSIGQWTVVQVKPEV | not soluble

Reference: the DeepSol protein solubility set
